The text below walks through data of US20240366624A1, “METHODS AND COMPOSITIONS FOR TREATING THROMBOTIC DISEASE” (Washington University, priority 2023, published 2024).

For the experiment, the target named is T1, ERO1α (Homo sapiens, UniProt Q96HE7).
T1 sequence (Q96HE7 24-468): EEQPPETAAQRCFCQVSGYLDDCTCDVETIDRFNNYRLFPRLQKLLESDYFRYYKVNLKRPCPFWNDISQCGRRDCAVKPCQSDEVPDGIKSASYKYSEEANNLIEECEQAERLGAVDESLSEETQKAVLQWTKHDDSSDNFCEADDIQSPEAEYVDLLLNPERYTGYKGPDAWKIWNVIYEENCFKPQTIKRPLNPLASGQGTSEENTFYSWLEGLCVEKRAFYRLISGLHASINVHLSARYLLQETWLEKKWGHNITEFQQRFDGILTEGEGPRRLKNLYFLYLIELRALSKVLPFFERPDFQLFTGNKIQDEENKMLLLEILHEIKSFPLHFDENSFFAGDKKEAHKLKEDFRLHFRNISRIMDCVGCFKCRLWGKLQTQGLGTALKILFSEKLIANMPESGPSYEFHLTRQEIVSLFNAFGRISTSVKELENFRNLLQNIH
Nature of the experiment: Bio-layer interferometry, STIM1 on biotinylated ERO1α biosensor. The class given is binding. The protocol: FIG. 11(A-Q) is an exemplary embodiment of ERO1α (endoplasmic reticulum oxidoreductase 1α) regulating the function of Ca^2+ signaling molecules, STIM1 (stromal interaction molecule 1) and SERCA2 (sarco/endoplasmic reticulum Ca^2+ ATPase 2), and enhancing cytosolic Ca^2+ levels during platelet activation in accordance with the present disclosure. FIG. 11A: Mass spectrometric analysis was performed to identify proteins interacting with ERO1α in resting and thrombin-activated human platelets. […] FIG. 11B and FIG. 11C: Immunoprecipitation of ERO1α with lysates of resting and thrombin (Thr)-activated human platelets, followed by immunoblotting and densitometry. FIG. 11(D-F): Ca^2+ release and influx of wild type (WT) and Ero1α-null platelets were assessed in response to 0.1 U/mL thrombin, 2 μM A23187, or 20 μM thapsigargin (TG), followed by the addition of 1 mM CaCl2. The Ca^2+ signal was quantified by the area under the curve (AUC). […] After incubation with a different concentration of wtSTIM1 and mutant STIM1 (mSTIM1), the specific interaction between ERO1α and STIM1 was measured by subtracting the nonspecific binding. The dissociation constant, KD, was calculated from the Kon and Koff values. […] Please note that the unmodified peptide was not detected. […] P values determined by unpaired Student t test. […]

B1: mutant STIM1: STIM1 with Cys49 and Cys56 mutated to Ser (protein)
chain: LSHSHSEKATGTSSGANSEESTAAEFSRIDKPLSHSEDEKLSFEAVRNIHKLMDDDANGDVDVEESDEFLREDLNYHDPTVKHSTFHGEDKLISVEDLWKAWKSSEVYNWTVDEVVQWLITYVELPQYEETFRKLQLSGHAMPRLAVTNTTMTGTVLKMTDRSHRQKLQLKALDTVLFGPPLLTRHNHLKD
With B1, the “KD, ERO1α binding to STIM1” value was “minimal and not concentration dependent”.
